These results are taken from patent publication US10174106B2, “Anti-neurotensin long fragment antibodies and uses thereof” (INSERM (INSTITUT NATIONAL DE LA SANTÉ ET DE LA RECHERCHE …, priority 2014, dated 2019).

For assay [1], the system named is LNM-R tumors. The experiment in a line: Cisplatin test, LNM-R xenograft. The format is in vivo, NMRI nu/nu mice. The procedure: (§1) Cisplatin test, 1×10^6 LMN-R cells and 1×10^6 R-SI NTSR1 were subcutaneously inoculated in NMRI nu/nu mice, LMN-R in the left flank and R-SI NTSR1 in the right flank. When tumors generated by LMN-R reached an average volume of 95 mm^3, mice were randomized in 5 groups of 8 to 10 mice. Group 1 was administered with PBS, group 2 with antibody FLp26-8.2 (i.p. every other day, 15 mg/kg) for total of 13 times and group 3 with mouse IgG (i.p. every other day, 15 mg/kg). Group 4 was administered with PBS and cisplatin (1 mg/kg at day 1,3 5 7, 15, 17, and 19) and groups 5 with antibody FLp26-8.2 (i.p. every other day, 15 mg/kg) and cisplatin (1 mg/kg at day 1,3 5 7, 15, 17, and 19). The volume of tumor was measured every other day.

In assay [2] the test system is R-SI NTSR1 tumors. The assay can be described thus: Cisplatin test, R-SI NTSR1 xenograft. The assay is classed as in vivo, NMRI nu/nu mice. The following applies: cisplatin 1 mg/kg day 1,3,5,7,15,17,19. The procedure:
as §1

For assay [3], the system named is LNM-R tumors. The experiment in a line: Tumor xenograft, LNM-R lung cancer cells (NTS and NTSR1 expressing), left flank. Particulars: 15 mg/kg i.p. every other day. The assay is classed as in vivo, NMRI nu/nu mice. The procedure: (§2) 1×10^6 LMN-R cells and 1×10^6 R-SI NTSR1 were subcutaneously inoculated in NMRI nu/nu mice, LMN-R in the left flank and R-SI NTSR1 in the right flank. When tumors generated by LMN-R reached an average volume of 40 mm^3, mice were randomized in 2 groups, then administered antibody FLp26-8.2 (i.p. every other day, 15 mg/kg) for total 8 times. PBS was used as the vehicle control. The volume of tumor was measured daily.

The next assay relates to MDA Si2 tumors. The assay can be described thus: Tumor xenograft, MDA Si2 cells (sh NTSR1), right flank. The format is in vivo, NMRI nu/nu mice. Particulars: 15 mg/kg i.p. every other day, vs PBS. The procedure:
(§3) 3×10^6 MDA-MB 231 cells and 3×10^6 MDA si2 were subcutaneously inoculated in 100 μl of matrigel the left flank and the right flank of the NMRI nu/nu mice, respectively. When tumors generated by MDA reached an average volume of 50 mm^3, mice were randomized in 2 groups, then administered antibody FLp26-8.2 (i.p. every other day, 15 mg/kg) for total 12 times. PBS was used as the vehicle control.

A further assay concerns Hep-R1b cells. The experiment in a line: Collagen invasion assay, Hep-R1b cells (Hep3B transfected with NTSR1). The assay is classed as cell-based. Particulars: expressing NTS and NTSR1, exposed to antibody.
For the next assay, the system named is MDA-MB231 tumors. The experiment in a line: Tumor xenograft, MDA-MB 231 breast cancer cells, left flank. Particulars: 15 mg/kg i.p. every other day. The assay is classed as in vivo, NMRI nu/nu mice. The procedure: as §3
The test system of the next assay is Hep-R1a cells. The experiment in a line: Collagen invasion assay, Hep-R1a cells (Hep3B transfected with NTSR1). The assay is classed as cell-based. Particulars: expressing NTS and NTSR1, exposed to antibody. The procedure: (§4) The cell culture insert (8 μm, Beckton Dickinson®) was coated with type I collagen (100 μl/well, 4×10^2 μg/ml, Sigma®) at 37° C. 24 h before the assay. 1 million MCF, NTS-h, Hep 3B, HepR1a, and HepR2b cells were seeded in the insert with 250 μl of serum free medium in presence or absence of 7 μg antibodies FLp26-8.2. Outside the insert, 750 μl medium with 10% FCS was added in the well as chemoattractant. After 48 h of incubation, the non-invading cells and collagen are removed from the upper surface of the membrane by scrubbing with a cotton swab. Invading cells (those adhering to the bottom surface of the membrane) were fixed and stained with the Kwif diff stain kit (Thermo®) and the number of stained cells were counted with an inverted microscope at 200× magnification.

The subject of assay [4] is R-SI NTSR1 tumors. The experiment in a line: Tumor xenograft, R-SI NTSR1 cells (LNM-R with NTSR1 sh-RNA), right flank. The format is in vivo, NMRI nu/nu mice. The following applies: 15 mg/kg i.p. every other day; vs PBS; same mice. Here is the method:
as §2

The next assay deals with CHO-NTSR1 cells. The experiment in a line: Cell proliferation of CHO-NTSR1 cells treated with NTS or LNM-R conditioned media. The format is cell-based. The following applies: 2.8 μg antibody, 60% without antibody.
A further assay deals with MCF-7 cells. The assay can be described thus: Type I collagen invasion assay, MCF-7 cells. The assay is classed as cell-based. Particulars: parental MCF-7; EGF 100 ng/mL; 7 μg antibody; 48 h. Here is the method: as §4
Assay [5] has as its system NTS-h cells (MCF-7 overexpressing NTS). The experiment in a line: Type I collagen invasion assay, MCF-7 cells overexpressing NTS (NTS-h). The format is cell-based. The following applies: NTS-overexpressing clone NTS-h; EGF 100 ng/mL; 7 μg antibody; 48 h. The procedure: The mouse #4 was selected. 5 clones were obtained. Clones 1-6, 7-12, 8-2, 13-1, and 16-12 were tested. […] The experiments were repeated twice.
as §4

Experimental for CHO-NTSR1 cells: Cell Proliferation 20 000 CHO-NTSR1 cells were seeded in 48 well dishes, in 200 ul media 10% with FCS. […] Cells were treated for 40 h in 200 μl media with 2.5% FCS. Cellular proliferation was evaluated by counting using Beckman Coulter's cell counting.

As for `N.N.[Cl][Pt][Cl]` [cisplatin, reference compound], the tumor growth rates result with LNM-R tumors [1] (cisplatin 1 mg/kg day 1,3,5,7,15,17,19, IgG 15 mg/kg i.p. every other day, compared to PBS) is given as “not altered”. Besides, in the assay on R-SI NTSR1 tumors [2], the tumor size result was “decreased”.

B1: FLp26-8.2: NTS monoclonal antibody directed against NTS long fragment; VH SEQ ID NO:1, VL SEQ ID NO:5 (antibody, V domains shown)
VH: QIQLVQSGPELKKPGETVKISCKASGYTFTNYGMNWVKQAPGKGLKWMGWITTNTGEPTYAEEFKGRFAFSLETSASTAYLQINNLKNEDTATYFCARRAFAMDYWGQGTSVTVSS
VL: DIVMTQAAPSVPVTPGESVSISCRSSKSLLHSNGNTYLYWFLQRPGQSPQLLIYRMSNLASGVPDRFSGSGSGTAFTLRISRVEAEDVGVYYCMQHLEYPYTFGGGTKLEIK
modifications: Synthetic VH Sequence; Synthetic VL sequence
Regarding B1, the “tumor size as compared to controls” value in the assay with LNM-R tumors [3] (8 times, vs PBS) worked out at 2.6 times smaller. The “growth from D1” value with LNM-R tumors [3] (PBS 24.68±4.05) stood at 5.92±0.99 fold. For the same molecule, in the assay with LNM-R tumors [3] (PBS control 3.43±0.34), the “doubling time after 16 days of treatment” value was 5.96 ± 0.55 days. The doubling time result in the assay with MDA Si2 tumors was “no difference”. The growth rate entry is reported as “no difference” in the assay on MDA Si2 tumors and “not different” in the assay on R-SI NTSR1 tumors [4]. The tumor size entry with MDA Si2 tumors is recorded as “no difference”; in the assay with LNM-R tumors [1] (FLp26-8.2 15 mg/kg i.p. every other day, with or without cisplatin 1 mg/kg) it was “smaller”. For the same molecule, the “invasive rate of the cells” value is recorded as “reduced” with Hep-R1b cells and “more drastic” in the assay with Hep-R1a cells. For the same molecule, in the assay on MDA-MB231 tumors (24 days, compared to PBS), the tumor growth entry was “strong reduction”. The “growth rate from D1” value in the assay on MDA-MB231 tumors (PBS 4.4±0.33) is on record as 2.1±0.18 fold. The “doubling time after 24 days of treatment” value in the assay with MDA-MB231 tumors (control 11.63±1) is 55.5 ± 32 days. Besides, the “size of the tumor” value in the assay on R-SI NTSR1 tumors [4] is listed as “not different”. Moreover, the “cellular growth inhibition with antibody added” value worked out at 15% in the assay on CHO-NTSR1 cells (CM (LNM-R conditioned media) treated cells) and 48% in the assay on CHO-NTSR1 cells (NTS treated cells (10^-7 M)). The “induction of invasiveness induced or not by EGF” value was “only in the NTS-overexpressing clones” in the assay on MCF-7 cells and “inhibited” in assay [5].
